According to PMC12032919, “A blocking antibody against anti-Müllerian hormone restores ovulation and normal androgen levels in a spontaneous rat model of polycystic ovary syndrome” (eBioMedicine, 2025):

What was measured:
[1] = biological target: T1, ovine AMH procomplex present in serum (Ovis aries, UniProt T1SHH2); assay: ELISA; AMH of bovine, ovine or mouse serum held on plate-captured AMHR2-Fc; detected with biotinylated Mab22A2 (0.5 ug/mL) and streptavidin-HRP; pair: Mab22A2 with serum AMH; details: one partner purified
T1 construct: anti-Müllerian hormone, ovine, N-terminal pro-domain of the procomplex; anti-Müllerian hormone, ovine, C-terminal mature domain of the procomplex; source: endogenous, serum of one ovine sample

[2] = biological target: T2, bovine AMH procomplex present in serum (Bos taurus, UniProt P03972); assay: as above; details: one partner purified
T2 construct: anti-Müllerian hormone, bovine, N-terminal pro-domain of the procomplex; anti-Müllerian hormone, bovine, C-terminal mature domain of the procomplex; source: endogenous, serum of one bovine sample

[3] = biological target: T3, mouse AMH procomplex present in serum (Mus musculus, strain , UniProt P27106); assay: as above; details: one partner purified
T3 construct: anti-Müllerian hormone, mouse, N-terminal pro-domain of the procomplex; anti-Müllerian hormone, mouse, C-terminal mature domain of the procomplex; source: endogenous, serum of one mouse sample
T3 sequence (P27106 whole entry, looked up, the tested form may be a part, one chain of several): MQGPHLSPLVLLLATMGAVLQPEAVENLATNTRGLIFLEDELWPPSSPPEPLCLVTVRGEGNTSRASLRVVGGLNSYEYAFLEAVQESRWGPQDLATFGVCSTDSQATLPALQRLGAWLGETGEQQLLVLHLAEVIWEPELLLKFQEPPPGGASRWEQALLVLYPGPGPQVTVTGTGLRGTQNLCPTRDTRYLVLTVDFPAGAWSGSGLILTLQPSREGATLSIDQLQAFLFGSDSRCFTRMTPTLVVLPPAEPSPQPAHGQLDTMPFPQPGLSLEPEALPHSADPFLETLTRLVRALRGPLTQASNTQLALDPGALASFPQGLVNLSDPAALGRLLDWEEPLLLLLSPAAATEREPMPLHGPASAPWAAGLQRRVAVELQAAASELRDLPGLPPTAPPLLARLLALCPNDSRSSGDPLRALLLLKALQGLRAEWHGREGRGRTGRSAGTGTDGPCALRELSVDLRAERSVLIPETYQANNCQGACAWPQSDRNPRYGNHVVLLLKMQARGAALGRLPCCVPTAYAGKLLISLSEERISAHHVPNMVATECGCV

[4] = biological target: T4, human AMH procomplex (completely cleaved AMH, non-covalent complex of the N-terminal and C-terminal homodimers) (human); assay: ELISA; AMH captured on Mab10.6 coated on plates, incubated with various concentrations of AMHR2-Fc; bound AMHR2-Fc detected with anti-human Fc antibody conjugated to HRP; n = 3
T4 sequence (P03971 25-560, looked up): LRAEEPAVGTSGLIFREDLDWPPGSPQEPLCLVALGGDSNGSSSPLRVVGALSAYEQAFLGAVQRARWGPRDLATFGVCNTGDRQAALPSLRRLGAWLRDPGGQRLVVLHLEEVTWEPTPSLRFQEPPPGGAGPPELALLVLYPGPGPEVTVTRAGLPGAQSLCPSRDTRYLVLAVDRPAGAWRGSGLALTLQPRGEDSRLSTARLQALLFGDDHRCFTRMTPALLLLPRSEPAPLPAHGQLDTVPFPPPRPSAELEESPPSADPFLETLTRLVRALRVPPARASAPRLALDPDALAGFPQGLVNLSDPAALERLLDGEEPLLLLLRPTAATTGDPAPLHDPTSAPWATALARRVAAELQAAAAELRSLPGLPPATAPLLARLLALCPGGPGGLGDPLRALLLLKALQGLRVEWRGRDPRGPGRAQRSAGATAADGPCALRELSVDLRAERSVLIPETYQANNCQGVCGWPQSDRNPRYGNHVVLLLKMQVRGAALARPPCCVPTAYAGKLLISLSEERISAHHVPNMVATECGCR

B1: Mab22A2, monoclonal antibody against human AMH (antibody, V domains shown)
VH: QIRLVQSGPELKKPGETVKISCKASGYSFTNYLMHWVKQAPGEALKWMGWINTNIGQPTYAEDFKGRFVFSLEASISTAFLHINSLKDEDTATYFCTSGYFGYDWYFDVWGVGTTVTVSS
VL: DIQMTQSPDSLSASVGETVTITCRASENIQNYLAWYQHKQGKSPQLLVYNAQTLANGVSSRFSGSGSGTHYSLNIHSLQPEDFGTYYCQHFWGTPRTFGGGTKLIIK
notes: the text calls the antibody IgG1a; Mouse IgG1 kappa; also called biotinylated Mab22A2; source: mouse monoclonal, previously prepared by immunisation of female BALB/c mice with human AMH precursor; hybridoma cells
binding result [1]: binds | binding result [2]: binds | binding result [3]: binds

B2: soluble fusion protein containing the extracellular domain of human AMHR2 and the Fc part of human IgG1 (AMHR2-Fc) (Fc fusion)
chain: PPNRRTCVFFEAPGVRGSTKTLGELLDTGTELPRAIRCLYSRCCFGIWNLTQDRAQVEMQGCRDSDEPGCESLHCDPSPRAHPSPGSTLFTCSCGTDFCNANYSHLPPPGSPGTPGSQGPQAAPGESIWMAL
mean AUC of the ELISA curve [4]: 75900
